Reference: patent US7888291B2, “Substrates and assays for β-secretase” (Elan Pharmaceuticals, Inc., priority 2000, dated 2011)
Blank lines part the entries; values can stand above or below the substance they belong to. Non-standard residues stand in square brackets, D forms with d. No end group written: not given here. Sta = CC(C)C[C@H](N)[C@@H](O)CC(=O)O

How the values were obtained:
[1] = Solubility of peptide substrate; type: physicochemical; conditions: effect of the addition of two lysines
Hu-Asp [2] = target: T1, Hu-Asp (Homo sapiens, UniProt P56817); assay: Hu-Asp cleavage assay variation for substrates of SEQ ID NO:190 and 191 (Vmax, Km, pH, ionic strength, DMSO); type: biochemical; set-up: made in house; host or cells: High Five insect cells; conditions: 100 mM NaOAc/HOAc, pH 4.5 (stated for SEQ ID NO:190 and 191)
Protocol: In the substrates SEISY-EVEFRWKK (SEQ ID NO:190) and GLTNIKTEEISEISY-EVEFRWKK (SEQ ID NO:191), the 10 N-terminal amino acids of peptide SEISY-EVEFRWKK (SEQ ID NO:190) are identical to those of peptide SEISY-EVEFR (SEQ ID NO:152). The difference between the two peptide is the presence of a tryptophan and two lysines in the peptide of SEQ ID NO:190. […] Hu-Asp activity was tested towards SEISY-EVEFRWKK (SEQ ID NO:190) and GLTNIKTEEISEISY-EVEFRWKK (SEQ ID NO:191). […] The activity difference between the two peptides was particularly dramatic in the pH range 4.0-4.6. Specifically, it was 6.3-4.8 times higher for the peptide of SEQ ID NO:191. […] Both peptides were inhibited by increasing concentrations of DMSO. […] As expected, the N-terminus elongation increases activity. […] The development of the substrates of SEQ ID NO:190 and SEQ ID NO:191 is of great value in Hu-Asp inhibition studies and in studies concerning recombinant Hu-Asp refolding from E. coli inclusion bodies.
In a variation of the above assay for substrates of SEQ ID NO:190 or its N-terminally extended version depicted in SEQ ID NO:191), the substrates are incubated with the enzyme to a final reaction solution volume of 200 μl (although reaction mixtures of 50-100 μl also were used) composed of 5-50 μM peptide substrate, 1-10 nM enzyme, 0.1. M sodium acetate buffer at pH 4 to 5. […]

Hu-Asp [3] = target: T1, Hu-Asp; assay: Inhibition of HuAsp enzyme activity by statine-containing peptide; type: biochemical
Hu-Asp2 [4] = target: T2, Hu-Asp2 (Homo sapiens, UniProt P56817); assay: Hu-Asp2 peptide substrate cleavage assay (HPLC quantitation of cleavage products); type: biochemical
T2 construct: made in house; host or cells: High Five insect cells
Protocol: The peptides listed in Table 2 were designed, synthesized, and tested for activity as substrates for Hu-Asp2. 200 μM of each test substrate was incubated with 210 nM Hu-Asp2 enzyme at pH 4.5 at 37° C. for 3 hours. Of course it should be understood that these are merely exemplary assay conditions, and those of skill in the art will be able to vary these conditions and yet still provide appropriate Hu-Asp2 activity. For example, it is envisioned that the assays may be conducted at a pH range of from between about 4.0 to about 7.0. The amount of enzyme added to a given reaction mixture may also be varied and those of skill in the art will be able to perform assays defining the optimal enzyme concentrations necessary for a given assay, as such 150 nm; 200 nm; 250 nm; 300 nm or more or less enzyme may be added. Substrate concentration in those also may be varied such that an assay may use 100, 150 μM, 200 μM, 250 μM, 300 μM, 350 μM or more or less of any given; substrate. It may be that one substrate produces an optimum activity at one concentration whereas another substrate is needed to be present at a different concentration to produce an optimum cleavage rate. However, such optimizations of enzyme assay conditions is well within the skill of those in the art and will not require undue experimentation.
In an exemplary assay to determine the cleavage of the substrates of the present invention, Asp2 was prepared from High Five™ insect cells. Generally, the assasy are run in solution at acidic pH (4.0 to 5.0), at 25-37° C. in the presence of nM or sub-nanomolar enzyme. After a suitable period of incubation the reaction is stopped at a desired time by addition of 4% trifluoracetic acid (TFA). Substrates and products are separated using reverse phase HPLC. The disappearance of the substrates and the appearance of the products are monitored by continuous measurement of the absorbance of the effluent at […]. Furthermore, if the peptide comprises a tryptophan residue, the monitoring may additionally or alternatively involve continuous monitoring of fluorescence of tryptophan fluorescence (excitation at 280 nm, emission at […]) of the effluent.
In a typical assay, 210 nM enzyme and 200 μM substrate were incubated in 0.2 M sodium acetate at pH 4.5 in 100 μl volume at 37° C. for 1 to 3 hours. The assay was stopped by the addition of 50 μl 4% TFA to lower the pH below the active range of the enzyme. Subsequently, 100 μl of this mixture was injected into a Hewlett Packard Model 1090 HPLC equipped with a Vydac column (4.6 mm i.d.×150 mm, 5 μm) pre-equilibrated with 95% A (0.15% TFA in water), 5% B (0.15% TFA in acetonitrile). The constituents were then eluted from the column with the following linear gradients: 0-15 min: 5-50% B; 15-17 min: 50-100% B; 17-20 min: 100-5% B; 20-22 min: 5% B). The cleavage products were then quantitated using an enhanced integrator. […]

HEK-293 cells = assay: ELISA of secreted Aβ40 and Aβ42 in medium of transfected HEK-293 cells; type: cell-based, human; conditions: medium of the transfected HEK-293 cells
Protocol: As one indicator of APP processing, levels of secreted Aβ from the medium of the transfected HEK-293 cells were measured. Measurements were by ELISA using antibody 6E10 (Syntek, St. Louis, Mo.) to capture Aβ and antibody 208 for Aβ40 and antibody 165 for Ap42. […] Using additional constructs in peptide activity assays, it was determined that if an Asn residue was substituted in place of a Ser to give SEVNY-↓-EVEFR (SEQ ID NO:170), this peptide has an activity that is only ⅕ than that of SEVSY-↓-EVEFR (SEQ ID NO:141; Table 4). This observation reaffirms that amino acid optimization at a certain position depends on the rest of the substrate sequence.

Hu-Asp2 [5] = target: T2, Hu-Asp2; assay: Hu-Asp2 peptide substrate cleavage assay (HPLC quantitation of cleavage products); type: biochemical

T2 sequence (P56817 46-501): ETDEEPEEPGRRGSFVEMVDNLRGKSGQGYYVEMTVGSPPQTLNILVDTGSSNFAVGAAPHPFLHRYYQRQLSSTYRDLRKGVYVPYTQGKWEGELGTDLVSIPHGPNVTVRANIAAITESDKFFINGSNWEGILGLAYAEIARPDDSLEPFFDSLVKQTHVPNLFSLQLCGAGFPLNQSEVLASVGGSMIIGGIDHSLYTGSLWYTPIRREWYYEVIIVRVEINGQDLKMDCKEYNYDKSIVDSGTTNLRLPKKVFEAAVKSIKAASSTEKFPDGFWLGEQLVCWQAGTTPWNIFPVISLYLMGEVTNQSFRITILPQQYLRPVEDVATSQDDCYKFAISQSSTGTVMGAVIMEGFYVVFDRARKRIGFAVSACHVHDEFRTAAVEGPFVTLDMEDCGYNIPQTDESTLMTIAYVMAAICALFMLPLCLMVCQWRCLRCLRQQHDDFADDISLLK
T1 sequence (P56817 46-501): as above

- solubility [1]: increased solubility
- Km (Hu-Asp [2]): 86.7 µM
Substance: SEISYEVEFRWKK [SEQ ID NO:190, SEISY-EVEFRWKK]

- inhibition of HuAsp enzyme activity (Hu-Asp [3]): shown to inhibit HuAsp enzyme activity
Substance: SEVN[Sta]VAEFRGGC [statine-containing peptide]

- activity compared with Swedish mutant peptide (SEQ ID NO:19) (Hu-Asp2 [5]; Table 4): 1.4 fold
- Relative rate of Cleavage (Hu-Asp2 [5]; Table 4, 200 nM enzyme, 200 μM substrate, pH 4.5, 37° C., 1 hr, SEQ ID NO:19 = 100): 141.8
- Cleavage Activity (Hu-Asp2 [5]; Table 5, 2 nM enzyme, 50 μM substrate, 25 mM Sodium acetate, pH 4.4, 37° C., 2 hr): 0.16 µmol/min/mg
- Relative rate of Cleavage (Hu-Asp2 [5]; Table 5, 2 nM enzyme, 50 μM substrate, 25 mM Sodium acetate, pH 4.4, 37° C., 2 hr, SEQ ID NO:141 = 100): 100
Substance: SEVSY-↓-EVEFR (SEVSYEVEFR)
- activity as substrate of Hu-Asp2 (in words) (Hu-Asp2 [4]): activity superior to the Swedish mutation
- production of secreted Aβ40 and Aβ42 (HEK-293 cells): easily measurable levels of Aβ
